The target in data set [1] is T1, ORF27 (Streptomyces aizunensis, UniProt Q52V65).
T1 sequence (Q52V65 1-470): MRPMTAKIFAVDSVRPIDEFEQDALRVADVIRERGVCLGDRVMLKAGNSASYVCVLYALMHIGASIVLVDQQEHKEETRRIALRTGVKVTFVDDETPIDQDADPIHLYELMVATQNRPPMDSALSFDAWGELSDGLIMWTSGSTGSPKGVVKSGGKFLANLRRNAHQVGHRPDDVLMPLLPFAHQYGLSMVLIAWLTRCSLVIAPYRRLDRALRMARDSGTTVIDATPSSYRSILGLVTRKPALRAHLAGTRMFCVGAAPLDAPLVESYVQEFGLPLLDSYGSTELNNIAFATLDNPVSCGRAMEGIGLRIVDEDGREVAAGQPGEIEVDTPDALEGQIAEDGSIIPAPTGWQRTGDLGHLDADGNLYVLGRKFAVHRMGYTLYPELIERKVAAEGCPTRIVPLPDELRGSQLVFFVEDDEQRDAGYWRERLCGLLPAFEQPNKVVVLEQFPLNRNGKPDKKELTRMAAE
Put plainly: In vitro ORF27 lactam formation with ATP or ADP, product analysis by HPLC-MS. As to conditions: ADP instead of ATP to activate ω-amino fatty acids. Format: biochemical. Here is the method:
(§1) To compare formation of various lactams by ORF27, a reaction mixture containing […] of ORF27, 5 mM ω-amino fatty acids substrates, 1 mM ATP or ADP, 0.5 mM CoASH and 1 mM Mg(CI)2 in 100 mM HEPES (pH=8) was incubated at 25° C. The reactions were quenched by addition of methanol to a final concentration of 50% (v/v) at multiple time points (0 min, 15 min, 1 h, 2 h, 4 h and 19 h). The resulting quenched reactions were kept at 4° C. and filtered through 10 K Amicon Ultra-0.5 mL Centrifugal Filters (Millipore) at 8000×g for 30 min. The filtered solutions were analyzed for lactams and nucleotides using HPLC-MS. Control reactions were carried out without enzyme, without substrate, without ATP, without CoASH or without MgCl2 (supplying additional 0.2 mM EDTA to chelate Mg^2+ ions from purified protein stock). Caprolactam, valerolactam and butyrolactam, AMP, ADP and ATP were purchased as standards from Sigma-Aldrich. The pH dependence of ORF27-catalyzed butrylactam formation was determined using an end-point assay, and the amount of butyrolactam was determined using the HPLC-MS method described above.
The ORF27-catalyzed lactam formation reaction in vitro was monitored for both nucleotide and lactam products, using either ATP or ADP as the energy source. […] In the absence of ORF27, ATP remained stable throughout the reaction (FIG. 6A). […]

The target of data set [2] is T1, ORF27. The experiment in a line: ATP-PPi release assay for ORF27 (substrate range, steady state parameters). It counts as biochemical. As to conditions: substrates with a negatively charged group on the ω-terminal end. Here is the method: The substrate range of ORF27 was determined by ATP-PPi release assays as previously described (12). Without prior knowledge about the reaction pathways, the ATP-PPi assay served a semi-quantitative method to compare substrate induced acceleration of ATP consumption. For kinetic investigation of ORF27 activity with different substrates, the inorganic pyrophosphate released by enzymatic reaction was measured continuously using the EnzChek Pyrophosphate Assay Kit (Invitrogen). A typical assay contained in a total volume of 150 μL: 5 μM of ORF27, 0-20 mM substrates, 1 mM ATP, 1 mM CoASH and 1 mM Mg(Cl)2 in 100 mM HEPES, pH 7.5. 2-amino-6-mercapto-7-methylpurine ribonucleoside (MESG) substrate, purine nucleoside phosphorylase and inorganic pyrophosphatase were added according to the protocol. Reactions were initiated by the addition of ATP and monitored at 360 nm with SpectraMax M2 (Molecular Devices, Sunnyvale, Calif.). Initial velocities were calculated using the standard curve for inorganic pyrophosphate. For each concentration, control reactions were carried out without enzyme or without ATP. The rates of PPi release were converted to observed rates, and the Michaelis-Menten kinetic parameters were obtained. […]
The sensitivity of the ATP-PPi release assay (5 μM Pi) allowed the initial velocity to be determined within the first 2 min of reaction incubation. […]

Data set [3] is described as follows: Solubility noted during preparation of substrate stock solution. The conditions noted are these: under neutral pH; HCl added to obtain 100 mM stock solution in pH ~2.0. It counts as physicochemical. The text has this: (§2) The acids assayed were glutamic acid, γ-aminobutyrate (GABA), 4-guanidinobutyric acid, (S)-3-hydroxyl-butyric acid, valeric acid, 4-methyl-hexanoic acid, 3-aminobutyric acid, 6-aminocaproic acid, 6-guanidinohexanoic acid, glutaric acid, adipic acid, 2-aminobutyric acid and (Sigma-Aldrich, St. Louis, Mo.).

The nature of data set [4]: pH profile of ORF27 catalyzed butyrolactam formation (end-point assay). Format: biochemical. Here is the method:
FIG. 8. pH profile of ORF27 catalyzed butyrolactam formation. A reaction mixture containing 5 μM ORF27, 1 mM GABA, 1 mM ATP, 1 mM CoASH and 1 mM Mg(Cl)2 in 100 mM HEPES (pH 7.5) was incubated at 25° C. for 30 min. The reaction was quenched by equal volume of methanol, and the filtered solution was analyzed by analytical method described above.
as §1, with “Caprolactam, valerolactam and butyrolactam, AMP, ADP and ATP were purchased as standards from Sigma-Aldrich.” left out

Substrate in data set [5]: CCC(N)C(=O)O
The experiment in a line: ATP-PPi release assay for ORF27 (substrate range, steady state parameters). Format: biochemical, Streptomyces aizunensis. As to conditions: other: 100 mM HEPES, pH 7.5 at 25° C. Here is the method: (§3) The substrate range of ORF27 was determined by ATP-PPi release assays as previously described (12). Without prior knowledge about the reaction pathways, the ATP-PPi assay served a semi-quantitative method to compare substrate induced acceleration of ATP consumption. For kinetic investigation of ORF27 activity with different substrates, the inorganic pyrophosphate released by enzymatic reaction was measured continuously using the EnzChek Pyrophosphate Assay Kit (Invitrogen). A typical assay contained in a total volume of 150 μL: 5 μM of ORF27, 0-20 mM substrates, 1 mM ATP, 1 mM CoASH and 1 mM Mg(Cl)2 in 100 mM HEPES, pH 7.5. 2-amino-6-mercapto-7-methylpurine ribonucleoside (MESG) substrate, purine nucleoside phosphorylase and inorganic pyrophosphatase were added according to the protocol. Reactions were initiated by the addition of ATP and monitored at 360 nm with SpectraMax M2 (Molecular Devices, Sunnyvale, Calif.). Initial velocities were calculated using the standard curve for inorganic pyrophosphate. For each concentration, control reactions were carried out without enzyme or without ATP. The rates of PPi release were converted to observed rates, and the Michaelis-Menten kinetic parameters were obtained.
as §2
(§4) The sensitivity of the ATP-PPi release assay (5 μM Pi) allowed the initial velocity to be determined within the first 2 min of reaction incubation. During this time period, ATP hydrolysis activity by ORF27 was not observed according to the ATP-PPi assay (ATP hydrolysis was observed over longer period of time though, see discussion below).

Substrate in data set [6]: N=C(N)NCCCCCC(=O)O
The description is as above. Format: biochemical, Streptomyces aizunensis. The conditions noted are these: other: 100 mM HEPES, pH 7.5 at 25° C. Here is the method: as §3, §2, §4

Substrate in data set [7]: NCCCC(=O)O
The description is as above. The conditions noted are these: other: 100 mM HEPES, pH 7.5 at 25° C. It counts as biochemical, Streptomyces aizunensis. Here is the method:
as §3, §2, §4

Substrate in data set [8]: CCCCC(=O)O
The data set is described as above. Format: biochemical, Streptomyces aizunensis. As to conditions: other: 100 mM HEPES, pH 7.5 at 25° C. Here is the method: as §3, §2, §4

Substrate in data set [9]: NCCCCCC(=O)O
The description is as above. Format: biochemical, Streptomyces aizunensis. As to conditions: other: 100 mM HEPES, pH 7.5 at 25° C. Here is the method:
as §3, §2, §4

Substrate in data set [10]: N=C(N)NCCCC(=O)O
The data set is described as above. It counts as biochemical, Streptomyces aizunensis. As to conditions: other: 100 mM HEPES, pH 7.5 at 25° C. Here is the method:
as §3, §2, §4

Substrate in data set [11]: CCC(C)CCC(=O)O
Described as above. Format: biochemical, Streptomyces aizunensis. The conditions noted are these: other: 100 mM HEPES, pH 7.5 at 25° C. Here is the method: as §3, §2, §4

On to `Nc1ncnc2c1ncn2[C@@H]1O[C@H](COP(=O)(O)OP(=O)(O)O)[C@@H](O)[C@H]1O` [ADP], for which, at ORF27 [1], the “rate of lactam formation with ADP relative to the similar reaction with ATP” value is on record as 20-50%.

As for `O=C(O)CCCCC(=O)O` [adipic acid, Adipic acid], the “enzyme activity of ORF27 on the substrate” value on ORF27 [2] was “not observed”.

Take `N=C(N)NCCCCCC(=O)O` [6-Guanidinohexanoic acid]: the solubility entry in [3] is listed as “low solubility”.

For `O=C(O)CCCC(=O)O` [glutaric acid, Glutaric acid], the “enzyme activity of ORF27 on the substrate” value at ORF27 [2] is given as “not observed”.

B1: ORF27 (Streptomyces aizunensis) (protein)
chain: T1 sequence (Q52V65 1-470)
What is called Km is the concentration of substrate that gives half-maximal velocity. A word on the kcat: it is the maximal rate divided by the concentration of active sites. For orientation: kcat/Km means the turnover number divided by the Michaelis constant. B1: the “pH below which the enzyme precipitated and became inactive” value in data set [4] is reported as “below 6.0”. For the same molecule, the pH optimum in data set [4] is recorded as 8.0. Moreover, the Km in data set [5] is 1630 µM; in [6], 110 µM; in data set [7] it was 17200 µM; in [8], 52200 µM; in [9], 56 µM; in data set [10], 13 µM. Besides, the Km in [11] amounted to 12100 µM. In addition, the catalytic constant (kcat) was 0.0006 s⁻¹ in data set [5]; 0.0055 s⁻¹ in [6]; 0.00583 s⁻¹ in data set [7]; 0.0283 s⁻¹ in data set [8]; 0.00283 s⁻¹ in data set [9]; 0.002 s⁻¹ in data set [10]. Besides, in data set [11], the catalytic constant (kcat) amounted to 0.0217 s⁻¹. For the same molecule, the catalytic efficiency (kcat/Km) in data set [5] is 0.37 M⁻¹ s⁻¹; in data set [6], 49 M⁻¹ s⁻¹; in data set [7] it was 0.338 M⁻¹ s⁻¹; in [8], 0.543 M⁻¹ s⁻¹; in data set [9], 49.4 M⁻¹ s⁻¹; in data set [10] it was 157 M⁻¹ s⁻¹. For the same molecule, the kcat/Km in [11] turned out to be 1.8 M⁻¹ s⁻¹.
